Measured values: patent US20050048066A1, “Identification of potential immunodominant acetylcholine receptor alpha subunit” (priority 2000, published 2005)

How the values were obtained:
[1] = molecular target: HLA-DR2 (a mix of DRB1*1501 and DRB5*0101) (Homo sapiens, UniProt P01903+P01911+Q30154); assay: DELFIA competitive binding assay, solubilized HLA-DR2; settings: in words, from IC50 / plot of 1/IC50
Excerpt: Measurement of the IC50 is preferably done by europium-streptavidin dissociation-enhanced lenthanide fluoroimmunoassay (DELFIA) and the IC50 typically calculated by four parameter fit analysis with the software program SOFTmax Pro.

[2] = test system: HLA-DR3 (a mix of DRB1*0301 and DRB3*0101); assay: DELFIA competitive binding assay, solubilized HLA-DR3; set-up: species or system human; settings: in words, from IC50
Experimental: The sequence of the AChRα subunit is shown with each of the transmembrane regions (M1-M4) indicated by a shaded box.) Ten-fold dilutions (preferably 1-100,000 nM) of unlabeled AChRα peptides were co-incubated at pH 5.5 with the biotinylated myelin basic protein peptide MBP 84-102, and the IC50 of binding to solubilized HLA-DR2 (a mix of DRB1*1501 and DRB5*0101) or HLA-DR3 (a mix of DRB1*0301 and DRB3*0101) was measured. Measurement of the IC50 is preferably done by europium-streptavidin dissociation-enhanced lenthanide fluoroimmunoassay (DELFIA) and the IC50 typically calculated by four parameter fit analysis with the software program SOFTmax Pro. FIG. 2 lists the IC50s of each AChRα peptide binding to HLA-DR2 and HLA-DR3.

Row | Substance | relative affinity for HLA-DR2 [1] | affinity for HLA-DR3 [2]
1 | AChRα 419-437: synthetic peptide fragment of the acetylcholine receptor α subunit, residues 419-437 (IIGTLAVFAGRLIELNQQG) | high relative affinity | 
2 | AChRα 113-126: synthetic peptide fragment of the acetylcholine receptor α subunit, residues 113-126 (TGHITWTPPAIFKS) | high relative affinity | 
3 | AChRα 195-212: synthetic peptide fragment of the acetylcholine receptor α subunit, residues 195-212 |  | high affinity

More lines, now with the values ahead:

Row | relative affinity for HLA-DR2 [1] | affinity for HLA-DR3 [2] | Substance
4 | high relative affinity |  | AChRα 310-327: synthetic peptide fragment of the acetylcholine receptor α subunit, residues 310-327 (NWVRKVFIDTIPNIMFFS)
5 |  | high affinity | AChRα 145-163: synthetic peptide fragment of the acetylcholine receptor α subunit, residues 145-163 (KLGTWTYDGSVVAINPESD)
